Experimental data: patent US20210309984

Tested on: MUC5AC within type II porcine stomach mucin extract

| Substance | immunoblot of MUC5AC degradation, in the presence of EDTA | immunoblot of MUC5AC degradation in type II mucin extract |
| --- | --- | --- |
| ChiA C-domain (ChiA-CTD: residues 419-762), wild-type | no activity was detected |  |
| SsIE (residues 90-1520), E. coli strain W | no activity was detected | MUC5AC was processed into a different ˜60 kDa species |
